Assay results taken from a protein production outcome set (Wang et al. 2014).

Assay: label from the status in PepcDB records

Sequence	protein production
MIIEYNKLGTILYSRISHKQLYNIFHYSYHEVRLLVYNKYLPIPKQFNDEFWTVEKVEHIRYLSLTGKPYKIFNEDMNSLRVLDKVRFKLDKATSISLTPKANLELEFSGIYMKSPLYLGDMSYGALSGNPNIAIATAADLTETLAGTGEGGLHPEVAKHKRIFVQWASARFGVDIRVLTAGMGVVIKIGQGAKPGIGGHLPGNKVTEPISLTRRIPIGIDAISPAPHHDIYSIEDLGQRIEALKEATGRPVFVKVAATNYIPYIVSGIARMGADGVIIDGHGAGTGATPVVIRDNVGIPIELAIASADKILRREGLRDKFTIIAAGRVSSATDAAKLFALGADIVSVGTGALIAMGCVMVHKCHVGSCPTGLTAKIDGTRVVDTEFGVKMLVNFINGFSLELANILDNLGLNNIRELRGRRDLLYGHGLSKDTLETLGIDGTEDEANPKLGELWNRRIIAYMHELMNKGNPVITSMGSTAPPDVEKPARIIDWLRSDGAQVTRPSIDPYREDVDTSFYLKGGEIYLSLPIIFDITEAPLEYKEAFSWSALALSSAVFDYETIDKYAEVFISSDGRGIARWSRNEIYENSYLLIPADENVIDEVIGMGVQGFIIDEDSGNSDLELVVSALDTKLKEVGVRNHYDILAKSSRLRHSADAFKLILLGADSVIMPYFILEKAIGEGNKGNLKEKAFSLITGMKKEIALLAGAAGVYSVQSTLTGNRELLRSINLNHSIRKALRIKPAGSL	failed
MIIGIDVGGTNTDAAIVSDEIKTIKLPNEAGIGGILKEISKEANLIEEKVVVSTSWPLNLIISKFSESRTLSLVIPGPGLNYSEYGEVLKGYVNHRGDVVEDIDEYEIAAIFRENSYDNVAISSKFSVRNGSLEDRVAEIVRNYV	failed
MIIGNCLILKDFSSEPFWGAVEIENGTIKRVLQGEVKVDLDLSGKLVMPALFNTHTHAPMTLLRGVAEDLSFEEWLFSKVLPIEDRLTEKMAYYGTILAQMEMARHGIAGFVDMYFHEEWIAKAVRDFGMRALLTRGLVDSNGDDGGRLEENLKLYNEWNGFEGRIFVGFGPHSPYLCSEEYLKRVFDTAKSLNAPVTIHLYETSKEEYDLEDILNIGLKEVKTIAAHCVHLPERYFGVLKDIPFFVSHNPASNLKLGNGIAPVQRMIEHGMKVTLGTDGAASNNSLNLFFEMRLASLLQKAQNPRNLDVNTCLKMVTYDGAQAMGFKSGKIEEGWNADLVVIDLDLPEMFPVQNIKNHLVHAFSGEVFATMVAGKWIYFDGEYPTIDSEEVKRELARIEKELYSS	not failed
MIIHIRRTDEKQRWLFFSTLLNATLAVAKLGWGWMMGSTLVVADGIHSISDVFGALLIFLALFFAAHKSERFPYGLHKLEDMAAVLGGLGILYAGYEIIHSVFFEAGIKTPEAIWTTIGFILAIVFIQYTFYFFELKAAQRLGSPGVKADAVNWLGDIGAGMIVVIGLVAHHYKVPYAQEVSVIIIVLMILKGAYDVLKEGLLSLLDAADIEMNDTIRNIVMAEPDITNIKRLNVRKSGSVYFADIELSIAEVATAKAHKSIDEVVNRLHEEINTLEAVTIHYEPDHPPYRTVVRLLDKDKKHLSIHFGQTAWLEITHIEADNKQISKEFVKNSAVIAPKGKAFRLVAYLLSIHTDTIVMGNAELDENILTLFEALNIEVKKEKNDET	failed
MIIIMAGGKSSRMGREKPVLKIAGKEMLLWVYEQAEAVGEVLVALSRHTPRTRELCLREGIEFVDTPGRGYVKDVQWLLREFGPFISLSSDIPFVKSSDIYSLLKEFDGKVSLTGVLPLEVVPKDLTPYSYMGYAIVGINGVAKEGEKFFVFSNPLLALNVNTPRELELAKRVAEIIRVRGIRLEHHHHHH	not failed
MIILPKTLYEEMLNHCLNSLPIEACGLLGGVIEDEKRIVKKVYLLTNVDQSPEHFSMDPLEQFAAVKDMRKNGWVLLGNFHSHPTTPARPSEEDKRLAFDKSLSYLILSLMDEKNPVLKSFRIYESYVEEEEIQIILEHHHHHH	failed
MIIRDQLILSIDNDLRDLIKARDIGVIYVYREETGEPEPGPSIEDIDLPEPLLEALKKRGIRRLYRFQYDAYKSILNGENVVITAGTGTGKTEAFLLPILSKIYEKRTPNPQAMLVYPTKALARDQLQRINDYLGYGVFSAAVYDGDTPRRIRQKISANPPDIVVTNPDMIHVGLVLSPTIRRFVKASQFMVIDELHVYEGVFGSNVKCVFERINKYRRNNPPQYIGSSATIGNPREHAETLFGVPVKVIEGPLRRRGIAYHVLVSAGKLSRWTVTAALASVLARRGLRFIVFVDSQQMAELIARIAWRSYGVDIMVHRAGLPADERKMIESKLRAGEISGVAATPTLELGIDIGFLDAVIMAAPPPSFAKYLQRAGRAGRRGRKGYVFTVLADDPIDAYYERNPKRYFEQEIPPLYMDPENEEVLRIHLLALLLEQGRIRRDELKRAWLRVAERLRYERLVAWVGPYIYPNYRLARKIFMEYMSIRGSGPQVVIYDVDEKNIVGYRELPQAVLDLHPDAVYLLNRRVYKSIEIDVDKKIARVKRLPDDTPYYTRPLYTVDLVDYSILASRTSSRGIPLAYAWVKLSINVEGYIVRNYWETEKAGIKYWFDHPITYTYNTKALLLKYPENPEWDYMSNAEAFHAIEHALISAARPVCGAALGEMGGISYPSGDIVIYDGAPGGSGLAKLLFERFEKAEEIAYEIVSKCDCEDGCPRCIYSPYCGNNNQVLSRRKATYVLGNILKRGAVKVMEPIKNRYGKPIV	failed
MIIRNGCLEDLQQVISIEQINFSEAEAASKKAMQERLTIMTDTFLVAEINGRLAGYIEGPVIKGRYLTDDLFHKVSEFPVRVGGFIGITSLSIHPDFKGQGIGTALLAAMKDLVVSQERDGISLTCHDDLISFYEMNGFKDEGESDSKHGGSLWYNMIWNNPTRSIC	failed
MIIRYATPDDIEDMVSIFIDAYNFPGPRESVKSSFEISLEVQPDGCLLAFLKDEPVGMGCIFFYNKQAWIGLMGVKKAYQRRGIGTEVFRRLLEIGRRKVDTIRLDASSQGYGLYKKFKFVDEYRTVRYELMERPIKRVEGVVEVNKIPNWVKEIDKKAFGDDRIRVLEAYMRRGARLLCAENEGFGLVYRGKIGPLVADSPRVAEKILLKAFQLGAREIIIPEVNKDALELIKIFKPSQVTSCMRMRLGSKIEEKVDIYYGILAYAKG	not failed
MIITIARQCGCGGHEVARILANKLGMELFDKKKLLEEANQLGQAEEHSNFFNEVPINSLLYGIAMGFGNTKPMDKSLKLVKAITENKDAIIIGRCANIIYKDSKDVTSVYLFADKEFRIKYLMERDGISEKEAEKYIKEVDEKRTSFHKYCTDTVWGDAKEYQLCLDTGKIGFEKTAELIMNYINAKKES	failed
MIITLFVMVSGNKVKYEGSGKSGLWMSNLEKSDKTSIGPNYFLNLYWQGSKKEEKWTVVERITLYVDGEKYQDDNVDEYDLSEYTGDEMPGGGRMEDHISTFDYMPEDEVIGHDVLVKVEWRTGQKKQTEAIKLHKKPWYKKLEHHHHHH	failed
MIITQGPQFQGKASKRLHVMAKPIGAVCNIDCSYCYYLSKEDLLEYKKGCSPQMDDETLETYIRQYIEGQNTPEIIFSWQGGEPTLLGLDYFKKIVEFQKKYQPEGILISNDLQTNGTLLTDKWCEFLAENNFLVGLSIDGPEMLHNAYRTNKAGRGTFKQVMNAVELLHKHNVKFATLTCVNNLTSRNPLEVYRFLRDV	failed
MIKAYFGAETFTLNKDFAYILVIGTTDVSLIPGLTIAGATPELTHFTPAADAEYVILGKCKSINTIPVSPTGIPTPALLTRASLSFTKSLKIVVNAGSRITPKIPYIDLQGEPGKDIRKQALSIEKVNIIIENGIKLGEELSNEYELIMIGESIPAGTTTAMATLLALGYDAMDKVSSASPDNPKELKRKVVEEALRNLPTDPLQRLAKVSDPVLLGVAGISLGFRGKILLAGGTQMTAAAAIVNEFDKSKLKDIIIGTTKWIVEDKSADMLSLAKQVGVKVLASMLDLSISIHEGIRTYEKGYVKEGVGAGGSTIMAFIRGVSNSTLVRKIDELYSELVGSNNLNT	failed
MIKDRFLQLIQLLISLFLIMGALGIGITIQKFTGVSVPGSVIGMLVLFFSMTLGLVKVDWVKPGATLFIRYMILLFVPISVGLMQHFDMLLANALPIIASAVGGSLIVLVSLAWLLDYLLKEKH	failed
MIKERPKFNWLHLLIFIVVVEAIGSLSAWLAGDIKAVYNGLNLPVLSPPDGLFGIVWPILYALIAIAGYLVFQQATTHRDRLMDATLFGIQLLLNFIWSIIFFSQSAYWWGLVIIIVLDLVVLLCILRFYRSSRLAAILMVPYLVWICFATYLTLGVALLN	failed
MIKHESSQPLRVAVAQCRIDWEDKHANLRRMERLAEETAGMADVLFFPEMMTTGFSMNVQALAEPFEEGETIMSLKRVTARHGLALSATMAVRENGKFYNRAYFVTPEGEVFHQDKRHLFRVGGEHEVMTPAQERRIFNY	failed
MIKKARKFIPFFLIGSLLAEDNGWYMSVGYQIGGTQQFINNKQLLENQNIINSVTQSAINIAGPTTGLITLSSQTVIDALGYGVSNTVGNQLEGISNILNQIGKRKDFYSSRQISSISQQIIGLKGSSDPLKAHSSQITAKLLSNTQSAFDQGIALSTNIISSINSLNPSNNTQEVKKQLQNTAQSMTELLQQIEHSITKTTSTTYAQSLLSNLTDAVNASSNNTAYVSALVNALNTLGVGVFPTTTTTHVVLNPPGQVVFYPTNSILGSTSSNSNNQQQYNNTLLMNTLQGTLSANTQNNPNGCANQVQCLEQFIQNLAPLAATPTSNNQANQQVQAIAQKLQSVAINTLDNNAINNTTYNLNNLHNALNFQAYESTIEQYNNALKQISWISFTEPKNLLKNTSNNYQIGTVTNAQGQNISAYDCMTATGSLSSNASSGISCSATSSTSSTNSFDNSLVATSKVQTINGKEQIGVNSFNLVSQVWSVYNSLKTSEENLQKNANILCANGTQSGTSSCNSSSGGLSISGNAQLQNILSPTSGTTTNTQAKSNAPKLKAMVVVNNEEEAKTANLAQSSGTTTQSPNSTVMGALNTVLQNVSNFQQSIQNAFQNQESNIQAWANAIYNTNGSQSQEMTPNNNQDLRIQLRANFYQLINTINQQVPTDMNALINQSQQTQQTSGSASNNNACASGMSGSNGNWCYQQWSDSKAYYSGLQSALGYQTQATTQSGSNGGNSITYNVQQITLTSNGLLNQIITNLKSVNGGNGASGTGSGNGTSQINTAYQMLTDASDGKLGTYSSSSGSNNGYTPCNSTNGSNKTSGNNCYEPNKQQNATTATATTDSNLQKVYNDAQKIANIIASSGNNKGVENGLKQFFEALKNNSSSLSNLCGNGSSGSSGTTCSGWLINLLGAIPTNGVSDTNNLINLLTEFIKTAGFIQNNDSSVSTSLTSAFQAITSAISQGFQALQNDISPNAILTLLQEITSNTTTIQSFSQTLRQLLGDKTFFMAQQKLIDAMINARNQVQNAQNQANNYGSQPVLSQYAAAKSTQHGMSNGLGVGLGYKYFFGKARKLGLRHYFFFDYGFSEIGLANQSVKANIFAYGVGTDFLWNLFRRTYNTKALNFGLFAGVQLGGATWLSSLRQQIIDNWGSANDIHSTNFQVALNFGVRTNFAEFKRFAKKFHNQGVISQKSVEFGIKVPLINQAYLNSAGADVSYRRLYTFYINYIMGF	failed
